Measured values reported in patent US5786462, “High affinity ssDNA ligands of HIV-1 reverse transcriptase” (NeXstar Pharmaceuticals, Inc.).

How the values were obtained:
[1] = target: T1, HIV-1 reverse transcriptase (Human immunodeficiency virus 1, UniProt P03366;P03366 P03366:600-1159,P03366:600-1039); experiment: inhibition; Ki', RNA-dependent DNA polymerase activity; conditions: tags: expressed in E. coli, purified per Davies et al. 1991
Description: (§1) Assay For Inhibition of RNA-Dependent DNA Polymerase Activity. A substrate for the RNA-dependent DNA polymerase activity of HIV-1 RT was assembled by annealing an 18 nucleotide, 5' end-labeled DNA primer to a 30 nucleotide RNA template with a complementary 3' end (see FIG. 10), and purifying the duplex on a 12% non-denaturing acrylamide gel. The primer sequence matched the 3' terminal 18 nucleotides of tRNA^{Lys,3}, responsible for priming minus-strand DNA synthesis of the HIV-1 genome, and the template sequence paralleled the HIV-1 genomic primer binding site and downstream 12 nucleotides. A dilution series of inhibitory ssDNA ligand (to give a final concentration of 0, 1, 3, 9, 27, or 81 nM) was denatured in HRT Buffer at 70° C. for 5 minutes and allowed to renature slowly at 20° C. The primer:template substrate was added to a final concentration of 40 nM, along with dNTP's at 400 μM. The 10 μl reaction was initiated with the addition of either HIV-1, AMV, or MMLV-RT (to give a final concentration of 10 nM), allowed to proceed for 5 minutes at 37° C., and terminated with one volume of formamide. Extension products were separated on an 8% denaturing acrylamide gel and quantitated with an Ambis radioanalytic imager.
The ability of each of the 8 isolates to inhibit the RNA-dependent DNA polymerase activity of HIV-1 RT was assayed by measuring the decrease in extension product formation from a primer::template substrate as a function of inhibitor concentration (FIGS. 10A–10E). The substrate for the inhibition assay was a DNA:RNA heteroduplex consisting of an 18 nucleotide end-labeled DNA primer (SEQ ID NO: 74) identical in sequence to the 3' end of tRNA^{Lys,3} annealed to a 30 nucleotide RNA template (SEQ ID NO: 75) whose sequence matches the genomic primer binding site and the first twelve transcribed nucleotides. Extension reactions were performed as described in Example 1 in the presence of 0, 81, 27, 9, 3, and 1 nM inhibitor as indicated in FIG. 10.

[2] = target: T1, HIV-1 reverse transcriptase; experiment: filter; HRT buffer, 6 mM MgCl2, 37 C; conditions: tags: expressed in E. coli, purified per Davies et al. 1991, label: 5'-32P
Procedure: Nitrocellulose Filter Binding Assays. Oligonucleotides bound to proteins can be effectively separated from the unbound species by filtration through nitrocellulose membrane filters (Yarus, M. and Berg, P. (1970) Anal. Biochem. 35:450–465; Lowary, P. T. and Uhlenbeck, O. C. (1987) Nucleic Acids Res. 15:10483–10493; Tuerk, C. and Gold, L. (1990) Science 249:505–510). The affinity of the random ssDNA library for HIV-1 RT was determined using a protein excess nitrocellulose filter binding assay as described in Carey, J. et al. (1983) Biochemistry 22:2601–2609. Selections were performed with a saturating ssDNA concentration to promote competition among DNA ligands for a limited number of available target binding sites.
(§2) Binding Curves Confirm High Affinity of Individual Ligands. Affinity values of each of the eight chosen isolates for HIV-1 RT were measured using the filter binding assay described in Example 1 (FIGS. 7A–C). […] Differences in maximum percent bound likely reflect competing ligand structures with lower affinity. […] Indicated dissociation constants were determined as in Example 1.

[3] = target: T1, HIV-1 reverse transcriptase; experiment: inhibition; Ki', RNA-dependent DNA polymerase activity, 10 nM RT, 40 nM substrate, 37 C; conditions: tags: expressed in E. coli, purified per Davies et al. 1991; label: 5'-32P; internal loop (AA opposite CG) helix
Description: as §1, with “imager. […]” for “imager.”

[4] = target: T1, HIV-1 reverse transcriptase; experiment: filter; first 49 nt of RT1; conditions: tags: expressed in E. coli, purified per Davies et al. 1991
[5] = target: T1, HIV-1 reverse transcriptase; experiment: filter; competition against RT1 gave Kc 3 nM (Example 5, FIG. 14); conditions: tags: expressed in E. coli, purified per Davies et al. 1991; pseudoknot
Procedure: 15:10483–10493; Tuerk, C. and Gold, L. (1990) Science 249:505–510). The affinity of the random ssDNA library for HIV-1 RT was determined using a protein excess nitrocellulose filter binding assay as described in Carey, J. et al. (1983) Biochemistry 22:2601–2609. Selections were performed with a saturating ssDNA concentration to promote competition among DNA ligands for a limited number of available target binding sites.
as §2

B1: RT4 (ssDNA)
DNA: ATCCGCCTGATTAGCGATACTTTAGCAAAGTTGAAGCCGGACTAACAAGCTCTACGACTTGAGCAAAATCACCTGCAGGGG
- Ki ([1]; label: 5'-32P, internal loop variant (AA opposite AG)): 4.1 nM

B2: RT36 (ssDNA)
DNA: ATCCGCCTGATTAGCGATACTAAGCTCTTAGTTGATGCGCGGTCAAAATTTAAGCTACTTGAGCAAAATCACCTGCAGGGG
- Ki ([1]; label: 5'-32P, internal loop variant (AA opposite A)): 6.5 nM

B3: RT1 (ssDNA)
DNA: ATCCGCCTGATTAGCGATACTCAGAAGGATAAACTGTCCAGAACTTGGAATATATCACTTGAGCAAAATCACCTGCAGGGG
- Kd ([2]; internal loop (AA opposite CG) helix): ~1 nM
- Ki [3]: 0.3 nM

B4: RT8 (ssDNA)
DNA: ATCCGCCTGATTAGCGATACTAGCCAGTCAAGTTAATGGGTGCCATGCAGAAGCAACTTGAGCAAAATCACCTGCAGGGG
- Ki ([1]; label: 5'-32P, internal loop variant (CAA opposite TAG)): 13 nM

Binder: ATCCGCCTGAATAGCGATACTCAGAAGGATAAACTGTCCAGAACTTGGA (ssDNA) [RT1t49]
- Kd [4]: 4 nM

B5: RT10 (ssDNA)
DNA: ATCCGCCTGATTAGCGATACTTATTTGCCCTTGCAGGCCGCAGGAGTGCTAGCAGTACTTGAGCAAAATCACCTGCAGGGG
- Ki ([1]; label: 5'-32P, intramolecular primer:template junction): 62 nM

B6: RT26 (ssDNA)
DNA: ATCCGCCTGATTAGCGATACTTACGTGAGCGTGCTGTCCCCTAAAGGTGATACGTCACTTGAGCAAAATCACCTGCAGGGG
- Kd ([2]; intramolecular primer:template junction with internal loop (AA opposite CG)): ~1 nM
- Ki ([1]; label: 5'-32P, intramolecular primer:template junction with internal loop (AA opposite CG)): 2.7 nM

B7: RT6 (ssDNA)
DNA: ATCCGCCTGATTAGCGATACTCAGGCGTTAGGGAAGGGCGTCGAAAGCAGGGTGGGACTTGAGCAAAATCACCTGCAGGGG
- Kd [2]: 5 nM
- Ki ([1]; label: 5'-32P): 30 nM

Binder: GGUCCGAAGUGCAACGGGAAAAUGCACU (ssRNA) [RNA pseudoknot (RNA pk)]
- Kd [5]: 5 nM
- Ki ([1]; pseudoknot): 4.7 nM
